Consider twelve molecules from patent US20180273587A1 (AILERON THERAPEUTICS, published 2018).

Broadly, the Ki is a measure of affinity in units of concentration, obtained from inhibition or displacement.

What all share (experiment): Ki; method not stated; unit not printed (nM per Table 6)
Experiment [1] concerns the target T1, BCL-XL (UniProt Q07817 1-209).
T1 construct: Target of the Ki columns

The target of experiment [2] is T2, MCL-1 (UniProt Q07820 172-327, limits assumed).
T2 construct: Target of the Ki columns; also called Myeloid cell leukemia 1

In experiment [3] the target is T3, BCL-2 (UniProt P10415 1-217, limits assumed).
T3 construct: Target of the Ki columns

Starred links: 1 amine or outer side, 2 acyl side, 3 side chain; linkers in the order of their positions; H or OH if unused. Positions of bridges follow the written chain, without caps; N, C: chain ends. Non-standard residues stand in square brackets, D forms with d. St = two pentenyl-alanine olefin side chains, each crosslinked to another residue (stitch), C=CCCCC(CCCC=C)(N[*:1])C(=O)[*:2]; Phe(4-CF3) = N[C@@H](Cc1ccc(C(F)(F)F)cc1)C(=O)O; Phe(4-F) = N[C@@H](Cc1ccc(F)cc1)C(=O)O; 2Nal = N[C@@H](Cc1ccc2ccccc2c1)C(=O)O; R8 = C=CCCCCCC[C@@](C)(N)C(=O)O; S8 = C=CCCCCCC[C@](C)(N)C(=O)O; S5 = C=CCCC[C@](C)(N)C(=O)O; Abu = CC[C@H](N)C(=O)O

T2 sequence (Q07820 172-327 limits assumed): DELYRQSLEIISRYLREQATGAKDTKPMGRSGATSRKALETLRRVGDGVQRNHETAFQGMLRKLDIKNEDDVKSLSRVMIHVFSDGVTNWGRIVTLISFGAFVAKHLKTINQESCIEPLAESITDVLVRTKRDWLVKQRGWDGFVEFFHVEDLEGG
T3 sequence (P10415 1-217 limits assumed): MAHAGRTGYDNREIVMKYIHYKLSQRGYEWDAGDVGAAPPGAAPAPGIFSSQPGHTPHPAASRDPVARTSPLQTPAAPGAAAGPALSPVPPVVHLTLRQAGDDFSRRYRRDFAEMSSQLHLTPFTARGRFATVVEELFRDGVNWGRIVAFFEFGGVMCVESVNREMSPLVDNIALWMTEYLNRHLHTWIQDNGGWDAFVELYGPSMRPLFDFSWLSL
T1 sequence (Q07817 1-209): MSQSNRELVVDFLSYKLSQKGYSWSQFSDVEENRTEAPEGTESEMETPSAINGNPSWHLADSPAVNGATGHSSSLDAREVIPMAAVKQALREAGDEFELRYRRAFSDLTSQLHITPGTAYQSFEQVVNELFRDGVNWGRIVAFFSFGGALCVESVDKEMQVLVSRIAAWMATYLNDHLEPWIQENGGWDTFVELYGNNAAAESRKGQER

B1: SEQ ID NO: 1739 (peptide)
peptide: Ac-IWIAAALR[R8]IVDAFN[S5]YYA-NH2
modifications: staple 9-16
SMILES: CC[C@H](C)[C@H](NC(C)=O)C(=O)N[C@@H](Cc1c[nH]c2ccccc12)C(=O)N[C@H](C(=O)N[C@@H](C)C(=O)N[C@@H](C)C(=O)N[C@@H](C)C(=O)N[C@@H](CC(C)C)C(=O)N[C@@H](CCCNC(=N)N)C(=O)N[C@]1(C)CCCCCCC=CCCC[C@@](C)(C(=O)N[C@@H](Cc2ccc(O)cc2)C(=O)N[C@@H](Cc2ccc(O)cc2)C(=O)N[C@@H](C)C(N)=O)NC(=O)[C@H](CC(N)=O)NC(=O)[C@H](Cc2ccccc2)NC(=O)[C@H](C)NC(=O)[C@H](CC(=O)O)NC(=O)[C@H](C(C)C)NC(=O)[C@H]([C@@H](C)CC)NC1=O)[C@@H](C)CC
Regarding B1, the Ki in experiment [1] was determined as 140 nM; in experiment [2] it was 104 nM; in experiment [3] it was 120 nM.

B2: SEQ ID NO: 1744 (peptide)
peptide: Ac-IWIAQALR[R8]IGDA[Phe(4-CF3)]N[S5]YYA-NH2
modifications: staple 9-16
SMILES: CC[C@H](C)[C@H](NC(C)=O)C(=O)N[C@@H](Cc1c[nH]c2ccccc12)C(=O)N[C@H](C(=O)N[C@@H](C)C(=O)N[C@@H](CCC(N)=O)C(=O)N[C@@H](C)C(=O)N[C@@H](CC(C)C)C(=O)N[C@@H](CCCNC(=N)N)C(=O)N[C@]1(C)CCCCCCC=CCCC[C@@](C)(C(=O)N[C@@H](Cc2ccc(O)cc2)C(=O)N[C@@H](Cc2ccc(O)cc2)C(=O)N[C@@H](C)C(N)=O)NC(=O)[C@H](CC(N)=O)NC(=O)[C@H](Cc2ccc(C(F)(F)F)cc2)NC(=O)[C@H](C)NC(=O)[C@H](CC(=O)O)NC(=O)CNC(=O)[C@H]([C@@H](C)CC)NC1=O)[C@@H](C)CC
Consider B2, for which the values for the Ki in experiment [1], in experiment [2] and in experiment [3] were 107 nM, 8.2 nM and 104 nM, respectively.

B3: SEQ ID NO: 1741 (peptide)
peptide: Ac-IWIAAALR[R8]IGDAGN[S5]YYA-NH2
modifications: staple 9-16
SMILES: CC[C@H](C)[C@H](NC(C)=O)C(=O)N[C@@H](Cc1c[nH]c2ccccc12)C(=O)N[C@H](C(=O)N[C@@H](C)C(=O)N[C@@H](C)C(=O)N[C@@H](C)C(=O)N[C@@H](CC(C)C)C(=O)N[C@@H](CCCNC(=N)N)C(=O)N[C@]1(C)CCCCCCC=CCCC[C@@](C)(C(=O)N[C@@H](Cc2ccc(O)cc2)C(=O)N[C@@H](Cc2ccc(O)cc2)C(=O)N[C@@H](C)C(N)=O)NC(=O)[C@H](CC(N)=O)NC(=O)CNC(=O)[C@H](C)NC(=O)[C@H](CC(=O)O)NC(=O)CNC(=O)[C@H]([C@@H](C)CC)NC1=O)[C@@H](C)CC
As for B3, the Ki in experiment [1] stood at 171 nM; in experiment [2], 29.7 nM; in experiment [3], 145 nM.

B4: SEQ ID NO: 1740 (peptide)
peptide: Ac-IWIAAALR[R8]IGEAFN[S5]YYA-NH2
modifications: staple 9-16
SMILES: CC[C@H](C)[C@H](NC(C)=O)C(=O)N[C@@H](Cc1c[nH]c2ccccc12)C(=O)N[C@H](C(=O)N[C@@H](C)C(=O)N[C@@H](C)C(=O)N[C@@H](C)C(=O)N[C@@H](CC(C)C)C(=O)N[C@@H](CCCNC(=N)N)C(=O)N[C@]1(C)CCCCCCC=CCCC[C@@](C)(C(=O)N[C@@H](Cc2ccc(O)cc2)C(=O)N[C@@H](Cc2ccc(O)cc2)C(=O)N[C@@H](C)C(N)=O)NC(=O)[C@H](CC(N)=O)NC(=O)[C@H](Cc2ccccc2)NC(=O)[C@H](C)NC(=O)[C@H](CCC(=O)O)NC(=O)CNC(=O)[C@H]([C@@H](C)CC)NC1=O)[C@@H](C)CC
Regarding B4, the Ki in experiment [1] turned out to be 135 nM; in experiment [2], 63.6 nM; in experiment [3], 142 nM.

B5: SEQ ID NO: 1737 (peptide)
peptide: Ac-IWIAAALK[R8]IGDAFN[S5]YYA-NH2
modifications: staple 9-16
SMILES: CC[C@H](C)[C@H](NC(C)=O)C(=O)N[C@@H](Cc1c[nH]c2ccccc12)C(=O)N[C@H](C(=O)N[C@@H](C)C(=O)N[C@@H](C)C(=O)N[C@@H](C)C(=O)N[C@@H](CC(C)C)C(=O)N[C@@H](CCCCN)C(=O)N[C@]1(C)CCCCCCC=CCCC[C@@](C)(C(=O)N[C@@H](Cc2ccc(O)cc2)C(=O)N[C@@H](Cc2ccc(O)cc2)C(=O)N[C@@H](C)C(N)=O)NC(=O)[C@H](CC(N)=O)NC(=O)[C@H](Cc2ccccc2)NC(=O)[C@H](C)NC(=O)[C@H](CC(=O)O)NC(=O)CNC(=O)[C@H]([C@@H](C)CC)NC1=O)[C@@H](C)CC
Turning to B5, the Ki turned out to be 11.7 nM in experiment [1], 23.2 nM in experiment [2] and 25.6 nM in experiment [3].

B6: SEQ ID NO: 1738 (peptide)
peptide: Ac-IWIAAALR[R8]I[Abu]DAFN[S5]YYA-NH2
modifications: staple 9-16
SMILES: CC[C@@H]1NC(=O)[C@H]([C@@H](C)CC)NC(=O)[C@](C)(NC(=O)[C@H](CCCNC(=N)N)NC(=O)[C@H](CC(C)C)NC(=O)[C@H](C)NC(=O)[C@H](C)NC(=O)[C@H](C)NC(=O)[C@@H](NC(=O)[C@H](Cc2c[nH]c3ccccc23)NC(=O)[C@@H](NC(C)=O)[C@@H](C)CC)[C@@H](C)CC)CCCCCCC=CCCC[C@@](C)(C(=O)N[C@@H](Cc2ccc(O)cc2)C(=O)N[C@@H](Cc2ccc(O)cc2)C(=O)N[C@@H](C)C(N)=O)NC(=O)[C@H](CC(N)=O)NC(=O)[C@H](Cc2ccccc2)NC(=O)[C@H](C)NC(=O)[C@H](CC(=O)O)NC1=O
Turning to B6, the results for the Ki in experiment [1], in experiment [2] and in experiment [3] were 112 nM, 106 nM and 131 nM, respectively.

B7: SEQ ID NO: 1758 (peptide)
peptide: Ac-IWIAQALR[R8]IGDAFN[S5]YWA-NH2
modifications: staple 9-16
SMILES: CC[C@H](C)[C@H](NC(C)=O)C(=O)N[C@@H](Cc1c[nH]c2ccccc12)C(=O)N[C@H](C(=O)N[C@@H](C)C(=O)N[C@@H](CCC(N)=O)C(=O)N[C@@H](C)C(=O)N[C@@H](CC(C)C)C(=O)N[C@@H](CCCNC(=N)N)C(=O)N[C@]1(C)CCCCCCC=CCCC[C@@](C)(C(=O)N[C@@H](Cc2ccc(O)cc2)C(=O)N[C@@H](Cc2c[nH]c3ccccc23)C(=O)N[C@@H](C)C(N)=O)NC(=O)[C@H](CC(N)=O)NC(=O)[C@H](Cc2ccccc2)NC(=O)[C@H](C)NC(=O)[C@H](CC(=O)O)NC(=O)CNC(=O)[C@H]([C@@H](C)CC)NC1=O)[C@@H](C)CC
B7: the results for the Ki in experiment [1], in experiment [2] and in experiment [3] were 15.4 nM, 3.9 nM and 23.5 nM, respectively.

B8: SEQ ID NO: 1759 (peptide)
peptide: Ac-IWIAQALR[R8]IGDAFN[S5]Y[2Nal]A-NH2
modifications: staple 9-16
SMILES: CC[C@H](C)[C@H](NC(C)=O)C(=O)N[C@@H](Cc1c[nH]c2ccccc12)C(=O)N[C@H](C(=O)N[C@@H](C)C(=O)N[C@@H](CCC(N)=O)C(=O)N[C@@H](C)C(=O)N[C@@H](CC(C)C)C(=O)N[C@@H](CCCNC(=N)N)C(=O)N[C@]1(C)CCCCCCC=CCCC[C@@](C)(C(=O)N[C@@H](Cc2ccc(O)cc2)C(=O)N[C@@H](Cc2ccc3ccccc3c2)C(=O)N[C@@H](C)C(N)=O)NC(=O)[C@H](CC(N)=O)NC(=O)[C@H](Cc2ccccc2)NC(=O)[C@H](C)NC(=O)[C@H](CC(=O)O)NC(=O)CNC(=O)[C@H]([C@@H](C)CC)NC1=O)[C@@H](C)CC
Take B8: the Ki in experiment [1] was determined as 26.1 nM; in experiment [2], 8 nM; in experiment [3] it was 65.2 nM.

B9: SEQ ID NO: 1775 (peptide)
peptide: Ac-IWIAQALR[R8]IGDAFN[S5]AYA-NH2
modifications: staple 9-16
SMILES: CC[C@H](C)[C@H](NC(C)=O)C(=O)N[C@@H](Cc1c[nH]c2ccccc12)C(=O)N[C@H](C(=O)N[C@@H](C)C(=O)N[C@@H](CCC(N)=O)C(=O)N[C@@H](C)C(=O)N[C@@H](CC(C)C)C(=O)N[C@@H](CCCNC(=N)N)C(=O)N[C@]1(C)CCCCCCC=CCCC[C@@](C)(C(=O)N[C@@H](C)C(=O)N[C@@H](Cc2ccc(O)cc2)C(=O)N[C@@H](C)C(N)=O)NC(=O)[C@H](CC(N)=O)NC(=O)[C@H](Cc2ccccc2)NC(=O)[C@H](C)NC(=O)[C@H](CC(=O)O)NC(=O)CNC(=O)[C@H]([C@@H](C)CC)NC1=O)[C@@H](C)CC
B9: the Ki stood at 12.6 nM in experiment [1], 5.3 nM in experiment [2] and 112 nM in experiment [3].

B10: SEQ ID NO: 1769 (peptide)
peptide: Ac-IWIAQALR[R8]IGDAFN[S5][Phe(4-F)]YA-NH2
modifications: staple 9-16
SMILES: CC[C@H](C)[C@H](NC(C)=O)C(=O)N[C@@H](Cc1c[nH]c2ccccc12)C(=O)N[C@H](C(=O)N[C@@H](C)C(=O)N[C@@H](CCC(N)=O)C(=O)N[C@@H](C)C(=O)N[C@@H](CC(C)C)C(=O)N[C@@H](CCCNC(=N)N)C(=O)N[C@]1(C)CCCCCCC=CCCC[C@@](C)(C(=O)N[C@@H](Cc2ccc(F)cc2)C(=O)N[C@@H](Cc2ccc(O)cc2)C(=O)N[C@@H](C)C(N)=O)NC(=O)[C@H](CC(N)=O)NC(=O)[C@H](Cc2ccccc2)NC(=O)[C@H](C)NC(=O)[C@H](CC(=O)O)NC(=O)CNC(=O)[C@H]([C@@H](C)CC)NC1=O)[C@@H](C)CC
For B10, the Ki in experiment [1] was 26 nM; in experiment [2] it was 14.9 nM; in experiment [3], 200 nM.

B11: SEQ ID NO: 1783 (peptide)
peptide: Ac-IWIA[S5]ALR[St]IGDEFN[S8]YYA-NH2
modifications: staple 9-16, 5-9
notes: Row prints Ac-IWIA$ALRStIGDEFN$s8YYA-NH2
In the case of B11, the results for the Ki in experiment [1], in experiment [2] and in experiment [3] were 1.6 nM, 1.6 nM and 19.2 nM, respectively.

B12: SEQ ID NO: 1782 (peptide)
peptide: Ac-I[R8]IAQALR[St]IGDEFN[S8]YYA-NH2
modifications: staple 9-16, 2-9
notes: Row prints Ac-I$r8IAQALRStIGDEFN$s8YYA-NH2
B12: the Ki in experiment [1] was 1.1 nM; in experiment [2] it was 1.1 nM; in experiment [3], 22 nM.
